According to patent publication US12467929:

How the values were obtained:
[1] = biological target: recombinant UBE3A protein (Homo sapiens (Human)) (UniProt Q05086); assay: Simoa; capture GTX; SBG 100 pm; UBE3A 0.800 ng/ml
[2] = biological target: recombinant UBE3A protein (Homo sapiens (Human)) (UniProt Q05086); assay: Simoa; capture GTX; SBG 100 pm; UBE3A 0.00128 ng/ml
[3] = biological target: recombinant UBE3A protein (Homo sapiens (Human)) (UniProt Q05086); assay: Simoa; capture GTX; 3E5 0.2 ug/ml; UBE3A 0.800 ng/ml
[4] = biological target: recombinant UBE3A protein (Homo sapiens (Human)) (UniProt Q05086); assay: Simoa; capture GTX; 3E5 0.4 ug/ml; UBE3A 0.160 ng/ml
[5] = biological target: recombinant UBE3A protein (Homo sapiens (Human)) (UniProt Q05086); assay: Simoa; capture GTX; 3E5 0.1 ug/ml; UBE3A 0.0320 ng/ml
[6] = biological target: recombinant UBE3A protein (Homo sapiens (Human)) (UniProt Q05086); assay: Simoa; capture GTX; 3E5 0.2 ug/ml; UBE3A 0.0320 ng/ml
[7] = biological target: recombinant UBE3A protein (Homo sapiens (Human)) (UniProt Q05086); assay: Simoa; capture GTX; 3E5 0.4 ug/ml; UBE3A 0.0320 ng/ml
[8] = biological target: recombinant UBE3A protein (Homo sapiens (Human)) (UniProt Q05086); assay: Simoa head-to-head, Table 10; capture MS 2F6; UBE3A 100 ng/ml
[9] = biological target: recombinant UBE3A protein (Homo sapiens (Human)) (UniProt Q05086); assay: Simoa head-to-head, Table 10; capture MS 2F6; UBE3A 500 ng/ml
[10] = biological target: recombinant UBE3A protein (Homo sapiens (Human)) (UniProt Q05086); assay: Simoa head-to-head, Table 11; capture MS 2F6; UBE3A 0.16 ng/ml
[11] = biological target: recombinant UBE3A protein (Homo sapiens (Human)) (UniProt Q05086); assay: Simoa head-to-head, Table 11; capture MS 2F6; UBE3A 4.00 ng/ml
[12] = biological target: recombinant UBE3A protein (Homo sapiens (Human)) (UniProt Q05086); assay: 3-step Simoa, 120 min bead step; capture GTX; UBE3A 0.800 ng/ml
[13] = biological target: recombinant UBE3A protein (Homo sapiens (Human)) (UniProt Q05086); assay: Simoa; capture GTX + helper beads; 3E5 0.1 ug/ml; UBE3A 4.00 ng/ml
[14] = biological target: recombinant UBE3A protein (Homo sapiens (Human)) (UniProt Q05086); assay: Simoa; capture GTX + helper beads; 3E5 0.2 ug/ml; UBE3A 20.0 ng/ml
[15] = biological target: recombinant UBE3A protein (Homo sapiens (Human)) (UniProt Q05086); assay: Simoa; capture GTX + helper beads; 3E5 0.4 ug/ml; UBE3A 20.0 ng/ml
[16] = biological target: recombinant UBE3A protein (Homo sapiens (Human)) (UniProt Q05086); assay: Simoa; capture GTX + helper beads; 3E5 0.1 ug/ml; UBE3A 0.0320 ng/ml
[17] = biological target: recombinant UBE3A protein (Homo sapiens (Human)) (UniProt Q05086); assay: Simoa; capture GTX, no helper beads; 3E5 0.1 ug/ml; UBE3A 0.00128 ng/ml
[18] = biological target: recombinant UBE3A protein (Homo sapiens (Human)) (UniProt Q05086); assay: Simoa; capture GTX, no helper beads; 3E5 0.4 ug/ml; UBE3A 0.00640 ng/ml
[19] = biological target: recombinant UBE3A protein (Homo sapiens (Human)) (UniProt Q05086); assay: 2-step Simoa; capture GTX; UBE3A 125 ng/ml
[20] = biological target: recombinant UBE3A protein (Homo sapiens (Human)) (UniProt Q05086); assay: 2-step Simoa; capture GTX; UBE3A 7.81 ng/ml

Sequence of UniProt Q05086 (Q05086 whole entry): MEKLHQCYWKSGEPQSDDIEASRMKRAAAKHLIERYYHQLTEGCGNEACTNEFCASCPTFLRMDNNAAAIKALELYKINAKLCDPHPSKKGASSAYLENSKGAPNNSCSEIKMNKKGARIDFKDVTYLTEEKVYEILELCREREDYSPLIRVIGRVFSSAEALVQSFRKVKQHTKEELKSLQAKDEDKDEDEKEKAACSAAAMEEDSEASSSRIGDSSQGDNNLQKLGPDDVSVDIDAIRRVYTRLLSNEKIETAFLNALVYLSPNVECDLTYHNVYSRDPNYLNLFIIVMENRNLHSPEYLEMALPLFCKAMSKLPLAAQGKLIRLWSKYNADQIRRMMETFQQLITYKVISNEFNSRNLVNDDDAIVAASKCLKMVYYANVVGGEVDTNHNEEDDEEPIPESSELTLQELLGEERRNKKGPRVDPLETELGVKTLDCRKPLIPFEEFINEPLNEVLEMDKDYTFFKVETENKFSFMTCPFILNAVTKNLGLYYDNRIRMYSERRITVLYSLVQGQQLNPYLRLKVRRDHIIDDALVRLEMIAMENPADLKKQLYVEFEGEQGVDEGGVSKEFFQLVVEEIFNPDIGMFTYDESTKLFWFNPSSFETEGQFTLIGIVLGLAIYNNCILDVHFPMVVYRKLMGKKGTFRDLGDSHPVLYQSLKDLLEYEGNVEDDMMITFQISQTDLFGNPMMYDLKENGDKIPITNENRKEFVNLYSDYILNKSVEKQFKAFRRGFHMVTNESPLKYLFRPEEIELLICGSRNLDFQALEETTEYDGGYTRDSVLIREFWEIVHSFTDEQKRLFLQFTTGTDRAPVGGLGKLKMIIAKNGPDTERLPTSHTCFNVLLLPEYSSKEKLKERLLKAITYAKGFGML

An AEB1 [1] of 0.21, an AEB2 [1] of 0.214 and an AEB3 [1] of 0.211 were found for “anti-UBE3A antibody 3E5 (SAB1404508-100 ug, Millipore-Sigma)” in this work. It also gave an Average AEB [1] of 0.212, a Signal to Background [1] of 25.3 and an AEB1 [2] of 0.0082. For the same substance, the AEB2 [2] was 0.0092, the AEB3 [2] was 0.0096 and the Average AEB [2] was 0.009. It also gave a Signal to Background [2] of 1.07, an AEB1 [3] of 0.355 and an AEB2 [3] of 0.378. The AEB3 [3] was 0.358, the Average AEB [3] was 0.364 and the Signal to Background [3] was 9.26. It also gave an AEB1 [4] of 0.172, an AEB2 [4] of 0.165 and an AEB3 [4] of 0.174. For the same substance, the Average AEB [4] was 0.171, the Signal to Background [4] was 2.72 and the AEB1 [5] was 0.0351. For the same substance, the AEB2 [5] was 0.04, the AEB3 [5] was 0.0401 and the Average AEB [5] was 0.0384. It also gave a Signal to Background [5] of 1.99, an AEB1 [6] of 0.0619 and an AEB2 [6] of 0.0621. It also gave an AEB3 [6] of 0.0587, an Average AEB [6] of 0.0609 and a Signal to Background [6] of 1.55. For the same substance, the AEB1 [7] was 0.0958, the AEB2 [7] was 0.0924 and the AEB3 [7] was 0.095. It also gave an Average AEB [7] of 0.0944, a Signal to Background [7] of 1.51 and an AEB1 [8] of 2.71. It also gave an AEB2 [8] of 2.88, an Ave AEB [8] of 2.8 and a Signal to Background [8] of 207. It also gave an AEB1 [9] of 11, an AEB2 [9] of 10.9 and an Ave AEB [9] of 10.9. It also gave a Signal to Background [9] of 809, an AEB1 [10] of 0.0071 and an AEB2 [10] of 0.0078. It also gave an Ave AEB [10] of 0.0074, a Signal to Background [10] of 1.96 and an AEB1 [11] of 0.0868. It also gave an AEB2 [11] of 0.0803, an Ave AEB [11] of 0.0836 and a Signal to Background [11] of 22.1. The AEB1 [12] was 0.151, the AEB2 [12] was 0.154 and the Ave AEB [12] was 0.152. For the same substance, the Signal to Background [12] was 89.4, the AEB1 [13] was 0.639 and the AEB2 [13] was 0.606. The Average AEB [13] was 0.623, the Signal to Background [13] was 109 and the AEB1 [14] was 5.63. The AEB2 [14] was 5.39, the Average AEB [14] was 5.51 and the Signal to Background [14] was 570. It also gave an AEB1 [15] of 4.41, an AEB2 [15] of 6.45 and an Average AEB [15] of 5.43. For the same substance, the Signal to Background [15] was 278, the AEB1 [16] was 0.0159 and the AEB2 [16] was 0.0108. For the same substance, the Average AEB [16] was 0.0134, the Signal to Background [16] was 2.33 and the AEB1 [17] was 0.005. The AEB2 [17] was 0.0075, the Average AEB [17] was 0.0062 and the Signal to Background [17] was 1.09. For the same substance, the AEB1 [18] was 0.0228, the AEB2 [18] was 0.0232 and the Average AEB [18] was 0.023. The Signal to Background [18] was 1.18.

An AEB1 [19] of 0.263, an AEB2 [19] of 0.241 and an Ave AEB [19] of 0.252 were found for NB500-240 (Novus) (antibody) in this work. The Signal to Background [19] was 77.1, the AEB1 [20] was 0.058 and the AEB2 [20] was 0.0481. The Ave AEB [20] was 0.053 and the Signal to Background [20] was 16.2.
